Numbering of substitutions follows the chain as printed. Names may count otherwise. Some results are limits rather than exact numbers.

The target in one data set is Skp(V117P) (E. coli) (UniProt P0AEU7). Put plainly: solution NMR (signal intensities of monomer and trimer) + SEC-MALS; fraction of monomer against total Skp concentration, 25°C, 20 mM MES pH 6.5, 150 mM NaCl; monomer to trimer; C0.5 is the protein concentration at which half of the molecules are monomeric.
For data set [1], the target named is tOmpA, the eight-stranded transmembrane domain of OmpA (residues 1 to 177). Kind of data set: NMR quantification of Skp-bound tOmpA after complex assembly (holdase assay); excess of denatured [U-2H,15N]-tOmpA added dropwise to unlabeled Skp in 20 mM MES pH 6.5, 150 mM NaCl, aggregate spun down, tOmpA signals in 2D [15N,1H]-TROSY of the supernatant, 37°C, normalised to Skp(WT).

Data set [2] concerns the molecule itself. Kind of data set: SEC-MALS; Skp variants alone, elution concentration ≃80 μM, 25°C, 20 mM MES pH 6.5, 150 mM NaCl; monomer to trimer. In general terms: SEC sorts molecules by how far they enter the pores of the column.
The target of data set [3] is P0AEU7. The description is as above.
Data set [4] deals with the molecule itself. Kind of data set: solution NMR (signal intensities of monomer and trimer) + SEC-MALS; fraction of monomer against total Skp concentration, 25°C, 20 mM MES pH 6.5, 150 mM NaCl; monomer to trimer; C0.5 is the protein concentration at which half of the molecules are monomeric.
Data set [5] deals with the molecule itself. Kind of data set: SEC-MALS; Skp variants alone, elution concentration ≃80 μM, 25°C, 20 mM MES pH 6.5, 150 mM NaCl; monomer to trimer. The source holds these as a separate data set.
Data set [6] deals with the molecule itself. Kind of data set: solution NMR (signal intensities of monomer and trimer) + SEC-MALS; fraction of monomer against total Skp concentration, 25°C, 20 mM MES pH 6.5, 150 mM NaCl; monomer to trimer; C0.5 is the protein concentration at which half of the molecules are monomeric. The source holds these as a separate data set.
The target of data set [7] is P0AEU7. Kind of data set: solution NMR (signal intensities of monomer and trimer); Skp variants alone at 37°C, 20 mM MES pH 6.5, 150 mM NaCl; monomer to trimer. As to conditions: other: solution NMR (signal intensities of monomer and trimer).

With “Skp(V117P) (from UniProt P0AEU7 21-161) (natural protein)”, in the data set with Skp(V117P) (E. coli), the C0.5 is more than 1000 µM. The Skp activity (% of WT), amount of Skp-bound tOmpA in data set [1] was 1 % of WT.

B1: Skp(WT), seventeen kilodalton protein, periplasmic chaperone of Escherichia coli (natural protein, E. coli, UniProt P0AEU7 21-161, looked up)
chain: ADKIAIVNMGSLFQQVAQKTGVSNTLENEFKGRASELQRMETDLQAKMKKLQSMKAGSDRTKLEKDVMAQRQTFAQKAQAFEQDRARRSNEERGKLVTRIQTAVKSVANSQDIDLVVDANAVAYNSSDVKDITADVLKQVK
notes: Stands in a monomer-trimer equilibrium; the active form is the homotrimer; The thrombin-cleavable His6-tag of pET28b was not cleaved; Isotope-labelled for NMR in some samples; source: E. coli BL21-(λ DE3)-Lemo, purified (Ni-NTA, SEC); not shown: His6, N-terminal, kept
As to B1, in data set [1], the Skp activity (% of WT), amount of Skp-bound tOmpA is 100 % of WT. Besides, the “Trimer (%) at c ≃ 80 μM” value in data set [2] stood at 97%. This molecule yielded a Monomer (%) at c ≃ 80 μM with P0AEU7 [3] of 3%. In addition, the C0.5 in data set [4] was determined as 1.5 µM. Also, in data set [5], the stoichiometry N – broadly, a count of units in the complex or per binding partner – stood at 3.

B2: Skp(A103L) (natural protein, E. coli, UniProt P0AEU7 21-161, looked up)
chain: B1 chain with A103L
notes: Monomer-trimer equilibrium essentially as the wild type; source: E. coli BL21-(λ DE3)-Lemo, purified (Ni-NTA, SEC); not shown: His6, N-terminal, kept
As to B2, in data set [6], the “stoichiometry N” value turned out to be 3. The Skp activity (% of WT), amount of Skp-bound tOmpA in data set [1] was 100 % of WT. In addition, in data set [2], the “Trimer (%) at c ≃ 80 μM” value was 94%. The molecule further returned a Monomer (%) at c ≃ 80 μM with P0AEU7 [3] of 6%. For the same molecule, the C0.5 in data set [4] worked out at 1.5 µM.

B3: Skp(A108R) (natural protein, E. coli, UniProt P0AEU7 21-161, looked up)
chain: B1 chain with A108R
notes: Fully monomeric up to 1 mM; source: E. coli BL21-(λ DE3)-Lemo, purified (Ni-NTA, SEC); not shown: His6, N-terminal, kept
Consider B3, for which the Skp activity (% of WT), amount of Skp-bound tOmpA in data set [1] was 1 % of WT. Further, the C0.5 in data set [4] is more than 1000 µM.

B4: Skp(A108L) (natural protein, E. coli, UniProt P0AEU7 21-161, looked up)
chain: B1 chain with A108L
notes: Monomer-trimer equilibrium strongly shifted toward the monomer; also called Skp(108L); source: E. coli BL21-(λ DE3)-Lemo, purified (Ni-NTA, SEC); not shown: His6, N-terminal, kept
Consider B4, for which, in the data set with P0AEU7 [7], the “monomer (%) at 1 mM, 37°C” value is recorded as “around 95% monomer at a concentration of 1 mM” and the “monomer (%) at 37°C” value is “more than 80% in its monomeric state”. The “stoichiometry N” value in data set [6] turned out to be 3. In addition, the Skp activity (% of WT), amount of Skp-bound tOmpA in data set [1] was 55 % of WT. Also, the “Trimer (%) at c ≃ 80 μM” value in data set [2] stood at 47%. Besides, the Monomer (%) at c ≃ 80 μM in the data set with P0AEU7 [3] is 53%. The C0.5 in data set [4] came out at 80 ± 20 µM.

B5: Skp(A103R) (natural protein, E. coli, UniProt P0AEU7 21-161, looked up)
chain: B1 chain with A103R
notes: Monomer-trimer equilibrium shifted toward the monomer; source: E. coli BL21-(λ DE3)-Lemo, purified (Ni-NTA, SEC); not shown: His6, N-terminal, kept
As for B5, the “stoichiometry N” value in data set [6] is 3. Also, the Skp activity (% of WT), amount of Skp-bound tOmpA in data set [1] was 87 % of WT. For the same molecule, the “Trimer (%) at c ≃ 80 μM” value in data set [2] was 86%. This molecule also registered a Monomer (%) at c ≃ 80 μM in the data set with P0AEU7 [3] of 14%. In addition, the C0.5 in data set [4] is 7 ± 2 µM.

These data come from paper PMC7577714, “Regulation of chaperone function by coupled folding and oligomerization” (Science Advances, 2020).
